The domain aggregation screens of Martell et al. (2025)

Test: soluble fraction after stress (log2 fold change); higher = more stays soluble; pooled small domains, quantitative proteomics
Settings: stress: pH 4
How it was run: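 How much of each domain stays soluble after acid stress, expressed as a fold change, is used to gauge aggregation propensity. Pooled custom libraries of small domains underwent pH 4 stress before high-throughput quantitative proteomics. A higher log2 value means more of the domain stayed soluble.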

Sequence	soluble fraction (log2)
HMVGLKWYDTGNKKPPIGTEYKNTELSEALKGHDRKEFTWKELDVLGVNITDKEQYIVVGENYYTQV	0.22
HMNSQSGKGGVGYILETKYGLNLPPKMREAMGYAAKGVSDHLHKELHPDEIFDLFKKTFENVGQPYS	0.197
HMASRSQTEIMHLLSSGLPKHELVTALQSLLGISKPTAYKYLSQDVSIAYDHMVKILEYPPFQRVLYQ	-0.799
HMFSDDEINRLKARDSILVNLRDSEKQVWELYTDGKTVQNIANQLNKHKQSISATIINIKNKISRKQNMLK	-0.0225
HMGQISLSVNAIPEKAEVILDGNSIGNTPIRKNTITPGSHMFEIEKKGYAPISYDIYVNPSKAINLDFFM	-0.153
HMRPQYVDLFTKLSAEEAGAITSKLKELKVEYQLADNGSTIKVPQKDAAEIRLELANEGLPA	-0.283
HMETQVKVPNVVGMTQSKAIAKLKESKLDYEVQEQKHDGDKGKVVDQSEAEGTYVDRGTKVIIYVSTGE	≥ 0.43
HMSAAELFEERQRQYLRGRKSTKNIADNHGTIILRAGETITDQAIDKAKVAGKLVELVMNNE	0.144
HMKPVYNKVEIPRGGEYALVLSDGTKVHLNSMSSLRFPVAFTTGKREVELQGEAYFEVSKTGQPFIVNV	0.22
HMDLQNIQNQLNTEFAKSDTRIIFWFDDKGEYEDEVSELQLGDVKLHILDGLNWFYSKYLLNEA	-0.467
HMQLSQLLQPFDINAFKGHPLYTEENVKMFNDYTNRVKEWTKGTPYEQYWVTKEGQPTMLAWDSFKK	-1.07
HMLWTDTKYVTVPDFVGKEPKEIESSYLYNIEYHGEGTKVISQQPAAFSRTIEGGTVRLYLG	0.186
HMLNAPFGFRIEDDTLIPIPEEAKVVRQIFRYYLQGMGFGKIAQELNGQDVPGKPWGKERIKYILSNEKYI	-0.0934
HMSSTAIQAMIRRLIDGEDPRKPLSDARLAETLKASGVPVARRTVAKYRESMSIPSSQDRLRI	0.0607
HMQISDVSLIAKVIDDVIDNNVKSVSDYLEGNLNVLRFLVGQVMKETKGKANPQKATELLQEKLESLNN	-0.386
HMDSVSAVRTTHLNSYVLLLEKDGMAAATISRYIASMKGFFEYLFREHMIEEDPAFTLKPPKV	0.0461
HMATVHVDGIQYDFSSPEQAKEFAYKWAKKHNLTWEVHGETIHIK	-0.0405
HMFWEGYLAARREQFLKDQQVLLGNEFRSNPDFWLEVASKEWAVVEERLSTGADVSEEVQETMGLDF	-1.5
HMELDLPLEELGLSTRVLHSLKEEGIESVRALLALNLKDLKNIPGIGERSLEEIKEALEKKGFTLK	-0.423
HMDYTGIPQSLLDLMKKDNIMPMQIQRAVAERNYYPVDTPISNYDPMFIEAKLVGAWDQVLNVISHLDLP	-1.51
HMKILKQLEAIIEKEGLNESAKQFYLREISELDKEKQQEIINLVDKMEQAGFKNNLASAFSEVTEDIPQF	-0.518
HMLADIGGRIADLRREVGLTQGELAEKADISVVHLSNIELGKKTPGLSTLIRIAEALDVATDWILQA	-1.13
HMRSHLSANLQRLRHIAGLTQKDLALAANLPRATLASLEQGEANPRLDTLLAVASALQVGLDELIAAP	-1.1
HMNSLTVPDITNRTLAEASQVLLDMGLTPIPDAVAKDGVGDDVVYAQSPPPNVGAREGDVVTITYNPA	0.093
HMLDLNEVEFYAIENQLKENLKIDSKRFYELVPLIKGYQEDDIIQVLRWLIDNNRIIRHKDESLTWHS	-1.02
HMSELTKEIGKRIHDFRKSRGLNQEELARLIYKSKATLSKYEKGEIAIDLDTLKQLALALHVRMEQLLPPT	≥ 0.43

Sequence	soluble fraction (log2)
HMNVYEVKFGDTLDEIIKTYLFDIPVKKSILRQAVILANPHAFRRNNPHWMYSDRQLKLPELQDIRRAIF	-0.74
HMALDSQEVGYNIEARGARPVVAQLGKAGQFSAVENSIRLGDDNWIALAPKLAGGGNAGFTAGIKSALS	-0.293
HMFNISEKLKKYRNALGLTQTEVAEKIEITKPTYASYEKGKDISIGTLKKLADLFEVSFESFFSE	-0.336
HMESKPLTPSEIKKLRMDANMTQAGLAEVLGMTVKAVEAWESGRNIPSGAADKILRVMQKHPSVIGMMQS	0.247
HMENDGQFLRAEREKYGLTLTDIYEHTHIPIKKLKAYEMWEEEMPPRTRALLELYFDQVAFEYDS	-0.556
HMPRKYFPFYFTFRETAQTMPPRLRAVFYEAIIEYGTTGKEPTLPKSIAGYWPLVKPTLDSAKAHYDAG	-0.0316
HMENPLETYYSQWVSAIKREHPEASFVKDTDGKYYVEGLTKNRLAVIYENPHLVRLVNATTNLHVE	0.14
HMEFQEQLYRLRKQAGLSQEELSHIIGVSRQAVQKWEAGSARPDLDNLIALASHFKLSLDQLVGLT	-0.125
HMAGTAMRATTAVNVRSGAGTNYSRIGLLQAGEQIQALSSKNGWTQVSYKGRTGYVASAYLASL	0.402
HMTGWINVDKNWYYMNNSGSMARGMINVNNVSYYLDENGKMLSNTTVNVNGTDYRIDASGAMSQI	-0.153
HMQGYELKMYVTPDTKYSVAVYDAKNEMVSYTMGFSAKAPFGQEGEVLETVKLEFDKLAVGNYELKYWI	-0.0121
HMAGPGAEVVDRLIAVLTGERPATAADQVLLSILKGLGIGGVVLPSERTGLGWSGLYQRVKEITDMN	-1.21
HMNATPDMERYWASSAAEGRALEPLYAVSRGDGGEPLWWSPSRAQAERMAREEGGPLTVDRIDPP	-0.0463
HMSENMSQDLAQWYRLQQALHPNLDAPELWATDLTSQQRTVRDQLIQQWAQEKRDSLWSEISGD	-0.618
HMGNWEQQLRSWADGELATGKQDILTTAVPAFERALIETALSHTNGRKRDAAELLGWGRNTLTRKLKELGM	-0.46
HMYSKQRELIMEAVFKNRVHPTAEYVYKLLKKDHPELSLGTVYRNLNYWAENNMLKKINVPGGSDRFDGT	0.236
HMSDYVLLYSGLNTSDTTFLAYSFQEKGIRYKMPNPDEIEVRVQDVDQARRIAAGAQLGGQVS	-0.297
HMAGITLHAEEGRVRIRSQSEGLVKVLDAMGREQASWPLRSKGWWFFLTEGWAPGTYFVKTESGETQRFLV	0.215
HMNALVAKYKQGVTEEQQQGQGIIIIKRVVVRDQEAWVYEKKIFDWGGVSYFRDKQRITASTFNQETAL	-1.12
HMDISPAAKQRLALIQPLLEKNAEAITDRKLRNAVAKDIANNQNTTVRRVLRLYYRYLATGQVM	0.158
HMSTFTPYLVKVTTSVLNIRKGAGTNYGTNGSIRDMGTYTIVAEADGQGASKWGKLKSGAGWISLDYTKK	0.184
HMTKASEELYFRLKEELGTGVIVEHKKYGEGVVTQLDDRLVHIMFQDDTLRMMDLKILANAGLLKVK	-1.87
HMQSKDDLLDTFRVVKGNAALLNDQNKKLIRSLKVSSFGFTGITDQAAEVKKEMPDVLLEKASIEDILF	-0.595
HMALQDKYAELLTAANTMGVTNLAVAEKDGTLHVSGTAKSTADYDSLWALYDKIDPNMASGDLMMNI	-0.0324
HMFIPGDSVRVHVKVVEGSNERIQMFEGVVIARQGSGVRENFTVRRISYGVGIERTFPVHSPRL	-0.62
HMRMTKQRQAVLDELTRVTDFRSAQQIFEDLHSQGHRVGLATIYRSLQGLAEDGSVDTLRSSDGESLY	-0.169

Sequence	soluble fraction (log2)
HMSTFAQNLRALMEKRGVSQNELARSAGLTQSAINKILTGKTKQPGIDTTEAIARVLNVSVAQLIYT	0.22
HMQAKNGTVTGSVVNVRGGAGTQYAVKGKASRGTKVTILGQQSSWLNVRLDNGVTGWIHADYVQISE	-1.43
HMELQYSQEIEEAQKILENLGLYRGEIDGINGINTKSAIREFQRKSGLVVDGILGPNTTNALSKGSDAYIT	0.0515
HMSMPEVLSDRELEIFRMIGTGMSTGDIAKKLNISVNTIESHRKKIKDKLGIQKGSELVKAAVQWVSTQQ	-0.219
HMPAERLSMRKIYEILRLKYGHGLSNREVALSVSVSRSTVADYLLRAQAAGLSWPLPDGLDETGLEQRLFP	-0.572
HMSDPELNDNEKKIYDIIFNKKSMDLTELKNLSELSNKQWDKGIKSLSKQDFVKVIKTEEALIVELV	-0.126
HMPPTSADGIEKYLASGMIRGVGPVYAKKLVSAFGDKVFDIIEAAPHQLQEVEGIGRVRAASILAAWAEQ	-0.0654
HMEALPSNLRRLRLEAQLTLDRLGALSGVSRAMISKIERGASVPTATMLGKLAAALQVSLSQLL	-0.263
HMRVQELARDLGVEADTLIALLRQMGIPVTGARSAINDAQQAKVLAKIERERRAGHSDPAKAIQAVLEEAS	0.0597
HMGTPKMPLSLYLSMVENLRSLKRFALVNQQVKDGFVFFNDVAGIKRLQELLNYHNTGEKPSE	-0.287
HMGYDSYDADTIPKLKIGSIVEHPKFGEGSIISKAGAEVTIAFKIKGVKKINLEYTSIKVLK	0.117
HMSLSASELDQLRMMTKVSHMYHTRGMVQIDIARSLGLSQARVSRLLSAAEDANIVRTVVVA	-0.177
HMPEIFYRKIHRTDHDQIALDAEMIRLLIAIDEKKSLSQIAAEVQMEPMALKKNLGKLIQLGLVEPIK	-0.179
HMLPSMENWLGELSFWQTPWWERRDFSTFDNIAQSKEELDEFMSRDDNGAILERMQDPINTIEAE	-0.682
HMPEMAIRTLRLRNQRGAAVAAEWSRITASLLELRQVEFVNPVDQLIVLKGPEPWAGVAEELVRQLDV	-1.02
HMHLRYTYIYDNENRVTSKEASKWDSTQEAWVPYFKMNVSYVNNEVELSYARWNSKSNAYDSSIKKTI	-0.66
HMSDDIPVHYRLDVNDAARALKLLTDNGFSAETAESGLNVYMTRLQSAEAARLLVENNIAVYGLTAV	-0.196
HMAKRDEIEAELPRFVATITQELAASRDVLSMIEHYKQNSGPVFSAELDVLTADMRSGSYEAALTRFEARF	-0.0581
HMTENIPPVKIEEMRQKWQDIVLLHGVTSGRKIKSGQATYIWLYRNDQNWLLTFNSRHLSQPQV	-0.263
HMEAVIENAAIIKQNSGGYAVRATVNGVDLGMKPVERATALLYFSLTDKLEKDRLLSHTLQKTYGDLSA	-0.213
HMSGPVITEERNIANALISGLANMKETPTREQVERKAQQIAELFGYTGDLRNIITEAMISVDT	-0.137
HMEDADERRALEVLNQLLDLPEREQEAALAALSLPPALARRVRSLLSVQTRAADLFDTAPSP	-0.6
HMLGKNEAKEYKVAYGDIGKMPALIMGLVPLPKPPVVDERLRTLYVTATPEQHREIEAIMNRI	-0.306
HMSKEEAIQAMKEGKKVTHRFFSSDEWMTIENGFLLLEDGVRISLEDFFNFRSDSLWDNGYELYNPH	-0.768
